How the values were obtained:
[1] = Size exclusion chromatography, percent monomer of parent antibodies and DVD-Ig constructs; assay type: physicochemical
Procedure: Antibodies were diluted to 2.5 mg/mL with water and […] is analyzed on a Shimadzu HPLC system using a TSK gel G3000 SWXL column (Tosoh Bioscience, cat#k5539-05k). […] The HPLC system operating conditions are the following: […]

[2] = system: PGE2 / human EP4 receptor in HEK293 Gα16 cells; test: EP4 bioassay (Ca++ flux, neutralization of PGE2); assay type: cell-based; conditions: PGE2 VD in C-terminal position; EP4 bioassay, Ca++ flux; read-out: C-terminal VD PGE2 Neutralization EC50
Outline: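 Ca++ flux (FLIPR) in HEK293 Gα16 cells stably expressing human EP4, loaded with Ca++-sensitive dye for 90 min. PGE2, alone or pre-incubated with anti-PGE2 antibody, DVD-Ig or isotype control, was added in FLIPR buffer (HBSS, 20 mM HEPES, 0.1% BSA, 2.5 mM probenecid). EC50 derived from PGE2 dose-response.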

B1: DVD152: DVD-Ig construct listed in Table 4 (antibody)
VH: EVQLQESGPGLVRPSQTLSLTCTVSGYSITSDHAWSWVRQPPGRGLEWIGYISYSGITTYNPSLKSRVTMLRDTSKNQFSLRLSSVTAADTAVYYCARSLARTTAMDYWGQGSLVTVSSASTKGPEVQLVQSGAEVKKPGASVKVSCKASGYTFTKYWLGWVRQAPGQGLEWMGDIYPGYDYTHYNEKFKDRVTLTTDTSTSTAYMELRSLRSDDTAVYYCARSDGSSTYWGQGTLVTVSS
VL: DIQMTQSPSSLSASVGDRVTITCRASQDISSYLNWYQQKPGKAPKLLIYYTSRLHSGVPSRFSGSGSGTDFTFTISSLQPEDIATYYCQQGNTLPYTFGQGTKVEIKRTVAAPDVLMTQTPLSLPVTPGEPASISCTSSQNIVHSNGNTYLEWYLQKPGQSPQLLIYKVSNRFSGVPDRFSGSGSGTDFTLKISRVEAEDVGVYYCFQVSHVPYTFGGGTKVEIKR
For B1, the “% Monomer (purity)” value [1] was 87.6% and the EC50 [2] was 0.025 nM.

Reference: patent US8822645B2, “Prostaglandin E2 dual variable domain immunoglobulins and uses thereof” (AbbVie Inc., priority 2008, dated 2014)
